Assay results: article doi:10.1101/276808 (bioRxiv, 2018)
Several values for one entry are separate records, joined by “and”; a condition that tells them apart may be missing. Equal entries are not always repeated.

Molecular target: the molecule itself
Assay: native gel or EMSA

B1: Lrp (natural protein, Escherichia coli, UniProt P0ACJ0 1-164, looked up)
chain: MVDSKKRPGKDLDRIDRNILNELQKDGRISNVELSKRVGLSPTPCLERVRRLERQGFIQGYTALLNPHYLDASLLVFVEITLNRGAPDVFEQFNTAVQKLEEIQECHLVSGDFDYLLKTRVPDMSAYRKLLGETLLRLPGVNDTRTYVVMEEVKQSNRLVIKTR
stoichiometry N: 8 and 16
